Data: US10610603B2, “Thymidine kinase gene” (GenVivo, Inc., priority 2013, dated 2020)

Key:
Assay type in all cases: cell-based
[1] = tested on: C6 rat glioma; assay: In vitro bystander assay; conditions: 0-100% HSV-TK-m2 cells, 5-20 μM GCV
Protocol: (§1) Cells are seeded at 1-4×10^4 cells/well in a 96 well plate, in triplicate, with mixtures of TK cells ranging from 0-100%. The next day GCV is added at doses ranging from 10 μm to 1 mM. Cells plates at confluency are split 1:30 into 3 plates, 20-24 hours after GCV addition. 5 days later, cells are analyzed by Presto Blue for live cell metabolism and read on a microplate reader. Cell plates at sub-confluency are analyzed 3 days after GCV treatment by Presto Blue.
(§2) A375 human melanoma and C6 rat glioma stable pure population cell lines were established containing the A168H mutated HSV-TK-m2 gene. The bystander assays were conducted by plating the cancer cells with mixtures of the parental non-HSV-TK-m2 cells with the corresponding HSV-TK-m2 cell line ranging from 0-100% HSV-TK-m2. The mixtures of cancer cells were subsequently exposed to 5-20 μM GCV and cell kill is plotted in the figures below.

[2] = tested on: A375 human melanoma; assay: In vitro bystander assay; conditions: 0-100% HSV-TK-m2 cells, 5-20 μM GCV
Protocol: as §1, §2

[3] = tested on: cancer cells; assay: GCV mediated cancer kill following retroviral transduction delivery
Excerpt: To our knowledge, this is the most GCV selective HSV-TK synthetic gene product for GCV activation which has no Thymidine activity (HAT assay) ever evaluated biologically.

B1: SEQ ID NO: 18 (nucleic acid)
chain: GTCAGCGGCCGCACCGGTACGCGTCCACCATGGCCCTGCAGAAAAAGCTGGAAGAGCTGGAACTGGATGGCAGCTACCCCGGCCACCAGCACGCCAGCGCCTTCGACCAGGCCGCCCGCAGCCGCGGCCACAGCAACGGCAGCACCGCACTGCGGCCAGGATCTCAGCAGGAGGCCACCGAGGTGCGCCCCGAGCAGAAGATGCCCACCCTGCTGCGCGTGTACATCGACGGACCACACGGCATGGGCAAGACCACCACCACCCAGCTGCTGGTGGCCCTGGGCAGCCGCGACGACATCGTGTACGTGCCCGAGCCCATGACCTACTGGCGCGTGCTGGGCGCCAGCGAGACCATCGCCAACATCTACACCACCCAGCACCGCCTGGACCAAGGCGAGATCAGCGCCGGCGACGCCGCCGTGGTGATGACCAGCGCCCAGATTACAATGGGCATGCCCTACGCCGTGACCGACGCCGTGCTGGCACCACACATCGGCGGCGAGGCCGGCAGCAGCCACGCACCACCACCAGCACTGACCCTGATCTTCGACCGGCACCCAATCGCACACCTGCTGTGCTACCCGGCAGCACGCTACCTGATGGGCTCCATGACACCACAAGCCGTGCTGGCCTTCGTGGCCCTGATCCCACCAACACTGCCCGGCACCAACATCGTGCTGGGCGCCCTGCCCGAGGACCGCCACATCGACCGCCTGGCCAAGCGCCAGCGCCCCGGCGAGCGCCTGGACCTGGCCATGCTGGCCGCCATCCGCCGCGTGTACGGCCTGCTGGCCAACACCGTGCGCTACCTGCAGTGCGGCGGCAGCTGGCGCGAGGACTGGGGCCAGCTGAGCGGCACCGCCGTGCCACCACAGGGCGCCGAGCCACAGAGCAACGCCGGACCACGACCACACATCGGCGACACCCTGTTCACCCTGTTCCGGGCACCAGAGCTGCTGGCACCAAACGGCGACCTGTACAACGTGTTCGCCTGGGCCCTGGACGTGCTGGCCAAGCGCCTGCGCTCCATGCACGTGTTCATCCTGGACTACGACCAGTCACCGGCCGGCTGCCGCGACGCCCTGCTGCAGCTGACCAGCGGCATGGTGCAGACCCACGTGACAACACCCGGCAGCATCCCAACAATCTGCGACCTGGCCCGCACCTTCGCCCGCGAGATGGGCGAGGCCAACTAATAGGGATCCCTCGAGAAGCTTGTCA
**Q.** What does the source list for B1?
**A.** cell kill in mixed populations (bystander effect) [1]: significant increases in the mixed populations over what would be considered theoretical; cell kill in mixed populations (bystander effect) [2]: significant increases in the mixed populations over what would be considered theoretical; GCV mediated cancer kill activity [3]: exhibited pro-drug GCV enzyme activity and selectivity for their ability to kill cancer cells

B2: A168H and mutated at amino acids 159-161 from LIF to IFL: mHSV-TK CO MB-IFL A168H(IFL . . . AHL) (nucleic acid)
chain: GTCAGCGGCCGCACCGGTACGCGTCCACCATGGCCAGCTACCCCGGCCACCAGCACGCCAGCGCCTTCGACCAGGCCGCCCGCAGCCGCGGCCACAGCAACGGCAGCACCGCACTGCGGCCACGGCGCCAGCAGGAGGCCACCGAGGTGCGCCCCGAGCAGAAGATGCCCACCCTGCTGCGCGTGTACATCGACGGACCACACGGCATGGGCAAGACCACCACCACCCAGCTGCTGGTGGCCCTGGGCAGCCGCGACGACATCGTGTACGTGCCCGAGCCCATGACCTACTGGCGCGTGCTGGGCGCCAGCGAGACCATCGCCAACATCTACACCACCCAGCACCGCCTGGACCAAGGCGAGATCAGCGCCGGCGACGCCGCCGTGGTGATGACCAGCGCCCAGATTACAATGGGCATGCCCTACGCCGTGACCGACGCCGTGCTGGCACCACACATCGGCGGCGAGGCCGGCAGCAGCCACGCACCACCACCAGCACTGACCATCTTCCTGGACCGGCACCCAATCGCACACCTGCTGTGCTACCCGGCAGCACGCTACCTGATGGGCTCCATGACACCACAAGCCGTGCTGGCCTTCGTGGCCCTGATCCCACCAACACTGCCCGGCACCAACATCGTGCTGGGCGCCCTGCCCGAGGACCGCCACATCGACCGCCTGGCCAAGCGCCAGCGCCCCGGCGAGCGCCTGGACCTGGCCATGCTGGCCGCCATCCGCCGCGTGTACGGCCTGCTGGCCAACACCGTGCGCTACCTGCAGTGCGGCGGCAGCTGGCGCGAGGACTGGGGCCAGCTGAGCGGCACCGCCGTGCCACCACAGGGCGCCGAGCCACAGAGCAACGCCGGACCACGACCACACATCGGCGACACCCTGTTCACCCTGTTCCGGGCACCAGAGCTGCTGGCACCAAACGGCGACCTGTACAACGTGTTCGCCTGGGCCCTGGACGTGCTGGCCAAGCGCCTGCGCTCCATGCACGTGTTCATCCTGGACTACGACCAGTCACCGGCCGGCTGCCGCGACGCCCTGCTGCAGCTGACCAGCGGCATGGTGCAGACCCACGTGACAACACCCGGCAGCATCCCAACAATCTGCGACCTGGCCCGCACCTTCGCCCGCGAGATGGGCGAGGCCAACTAATAGGGATCCCTCGAGAAGCTTGTCA
**Q.** For B2, which “GCV mediated cancer kill activity” value [3] is on record?
**A.** The value was “exhibited GCV mediated cancer cell kill activity”.
